For assay [1], the target named is S. aureus PitR with amino terminal histidine tag (pETphoU2_6xHN) (S. aureus Mu50). The assay can be described thus: SEC; HiPrep 16/60 Sephacryl S-200 HR, 50 mM NaPO4, 150 mM NaCl pH 7.0, 0.5 mL/min; elution volume compared with volumes calculated from protein standards; loaded immediately after Ni purification.
For assay [2], the target named is S. aureus PhoU with amino terminal histidine tag (pETphoU1_6xHN) (S. aureus Mu50). The assay is described as above.

For the substance “S. aureus PitR with amino terminal histidine tag (pETphoU2_6xHN) (natural protein)”, in assay [1], the stoichiometry N (in general, the number of molecules, sites or subunits per partner or assembly) was 2.

For the substance “S. aureus PhoU with amino terminal histidine tag (pETphoU1_6xHN) (natural protein)”, the stoichiometry N in assay [2] is 2.

Values taken from paper PMC11705898.
